# Laboratory results published in patent US20220380739.
# T1: Abz-VDVADFA-Dap (Dnp)
# T1 chain: VDVADFA
# T2: Abz-VDVADGA-Dap (Dnp)
# T2 chain: VDVADGA
# T3: Abz-VDVADNA-Dap (Dnp)
# T3 chain: VDVADNA
# T4: Abz-VDVADWA-Dap (Dnp)
# T4 chain: VDVADWA
# T5: Abz-VDVADLA-Dap (Dnp)
# T5 chain: VDVADLA
# T6: Abz-VDVADDA-Dap (Dnp)
# T6 chain: VDVADDA
# T7: Abz-VDVADRA-Dap (Dnp)
# T7 chain: VDVADRA
# T8: Abz-VDVADHA-Dap (Dnp)
# T8 chain: VDVADHA
# T9: Abz-VDVADIA-Dap (Dnp)
# T9 chain: VDVADIA
# T10: Abz-VDVADKA-Dap (Dnp)
# T10 chain: VDVADKA
# T11: Abz-VDVADYA-Dap (Dnp)
# T11 chain: VDVADYA
# T12: Abz-VDVADTA-Dap (Dnp)
# T12 chain: VDVADTA
# T13: Abz-VDVADAA-Dap (Dnp)
# T13 chain: VDVADAA
# T14: Abz-VDVADMA-Dap (Dnp)
# T14 chain: VDVADMA
# T15: Abz-VDVADQA-Dap (Dnp)
# T15 chain: VDVADQA
# T16: Abz-VDVADEA-Dap (Dnp)
# T16 chain: VDVADEA
# T17: Abz-VDVADVA-Dap (Dnp)
# T17 chain: VDVADVA
# T18: Abz-VDVADPA-Dap (Dnp)
# T18 chain: VDVADPA
# T19: Abz-VDVADSA-Dap (Dnp)
# T19 chain: VDVADSA
# T20: Abz-VDVADCA-Dap (Dnp)
# T20 chain: VDVADCA
# Assays:
# Abz-VDVADFA-Dap (Dnp) = target: T1, Abz-VDVADFA-Dap (Dnp)
# Abz-VDVADGA-Dap (Dnp) = target: T2, Abz-VDVADGA-Dap (Dnp)
# Abz-VDVADNA-Dap (Dnp) = target: T3, Abz-VDVADNA-Dap (Dnp)
# Abz-VDVADWA-Dap (Dnp) = target: T4, Abz-VDVADWA-Dap (Dnp)
# Abz-VDVADLA-Dap (Dnp) = target: T5, Abz-VDVADLA-Dap (Dnp)
# Abz-VDVADDA-Dap (Dnp) = target: T6, Abz-VDVADDA-Dap (Dnp)
# Abz-VDVADRA-Dap (Dnp) = target: T7, Abz-VDVADRA-Dap (Dnp)
# Abz-VDVADHA-Dap (Dnp) = target: T8, Abz-VDVADHA-Dap (Dnp)
# Abz-VDVADIA-Dap (Dnp) = target: T9, Abz-VDVADIA-Dap (Dnp)
# Abz-VDVADKA-Dap (Dnp) = target: T10, Abz-VDVADKA-Dap (Dnp)
# Abz-VDVADYA-Dap (Dnp) = target: T11, Abz-VDVADYA-Dap (Dnp)
# Abz-VDVADTA-Dap (Dnp) = target: T12, Abz-VDVADTA-Dap (Dnp)
# Abz-VDVADAA-Dap (Dnp) = target: T13, Abz-VDVADAA-Dap (Dnp)
# Abz-VDVADMA-Dap (Dnp) = target: T14, Abz-VDVADMA-Dap (Dnp)
# Abz-VDVADQA-Dap (Dnp) = target: T15, Abz-VDVADQA-Dap (Dnp)
# Abz-VDVADEA-Dap (Dnp) = target: T16, Abz-VDVADEA-Dap (Dnp)
# Abz-VDVADVA-Dap (Dnp) = target: T17, Abz-VDVADVA-Dap (Dnp)
# Abz-VDVADPA-Dap (Dnp) = target: T18, Abz-VDVADPA-Dap (Dnp)
# Abz-VDVADSA-Dap (Dnp) = target: T19, Abz-VDVADSA-Dap (Dnp)
# Abz-VDVADCA-Dap (Dnp) = target: T20, Abz-VDVADCA-Dap (Dnp)
# Chain of 6H-GSG-VDVAD-TNFalpha (chain, as listed by the source): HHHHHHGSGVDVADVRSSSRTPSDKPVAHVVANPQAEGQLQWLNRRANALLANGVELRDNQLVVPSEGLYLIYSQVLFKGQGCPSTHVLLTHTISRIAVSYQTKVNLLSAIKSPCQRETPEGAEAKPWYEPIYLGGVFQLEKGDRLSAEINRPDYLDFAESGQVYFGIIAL
Protein,KM (Abz-VDVADFA-Dap (Dnp)) [µM],KM (Abz-VDVADGA-Dap (Dnp)) [µM],KM (Abz-VDVADNA-Dap (Dnp)) [µM],KM (Abz-VDVADWA-Dap (Dnp)) [µM],KM (Abz-VDVADLA-Dap (Dnp)) [µM],KM (Abz-VDVADDA-Dap (Dnp)) [µM],KM (Abz-VDVADRA-Dap (Dnp)) [µM],KM (T7AC-6H-GSG-VDVAD-hFGF-2) [µM],KM (Abz-VDVADHA-Dap (Dnp)) [µM],KM (Abz-VDVADIA-Dap (Dnp)) [µM],KM (Abz-VDVADKA-Dap (Dnp)) [µM],KM (Abz-VDVADYA-Dap (Dnp)) [µM],KM (Abz-VDVADTA-Dap (Dnp)) [µM],KM (Abz-VDVADAA-Dap (Dnp)) [µM],KM (Abz-VDVADMA-Dap (Dnp)) [µM],KM (Abz-VDVADQA-Dap (Dnp)) [µM],KM (Abz-VDVADEA-Dap (Dnp)) [µM],KM (Abz-VDVADVA-Dap (Dnp)) [µM],KM (Abz-VDVADPA-Dap (Dnp)) [µM],KM (Abz-VDVADSA-Dap (Dnp)) [µM],further results
T7AC_6H_mS9ProE (protein) MLEDPERNKERKEAELQAQTAEQHHHHHHGKNHAGSPGCEESAAGKEKLPKMRLPTRSDMICGYACLKGTAAMRNTKRGSWYIEALAQVFSERACDMHVADMLVKVNALIKDREGYAPGTEFHRCKVMSEYCSTLCRHLYLFPGHPPTGSGPVCLQVKPCTPEFYQTHFQLAYRLQSRPRGLALVLSNVHFTDEKELEFRSGGDVDHSTLVTLFKLLGYDVHVLCDQTAQEMQEKLQNFAQLPAHRGTDSCIVALLSHGVEGAIYGVDGKLLQLQEVFQLFDNANCPSLQNKPKMFFIQACRGEETERGVDQQD,80,43,120,56,410,150,68,298,160,130,92,420,100,110,370,120,110,90,120,120,KM (6H-GSG-VDVAD-TNFalpha): 520 µM
T7AC_6H_cpCasp2D (protein) MLEDPERNKERKEAELQAQTAEQHHHHHHGKNHAGSPGCEESAAGKEKLPKMRLPTRSDMICGYACLKGTAAMRNTKRGSWYIEALAQVFSERACDMHVADMLVKVNALIKDREGYAPGTEFHRCKEMSEYCSTLCRHLYLFPGHPPTGSGPVCLQVKPCTPEFYQTHFQLAYRLQSRPRGLALVLSNVHFTGEKELEFRSGGDVDHSTLVTLFKLLGYDVHVLCDQTAQEMQEKLQNFAQLPAHRVTDSCIVALLSHGVEGAIYGVDGKLLQLQEVFQLFDNANCPSLQNKPKMFFIQACRGDETDRGVDQQD,,,87,36,160,180,56,881,110,62,110,300,89,120,340,,200,,150,130,KM (6H-GSG-VDVAD-TNFalpha): 280 µM
T7AC-6H-cpCasp2_sar (protein) MLEDPERNKERKEAELQAQTAEQHHHHHHGKEHMASPGCEQSAAGKEKILKMRLPTRSDMICGYACLKGTAAMRNTKRGSWYIEALTQVFSERARDMHVADMLVKVNALIKDREGYAPGTEFHRCKEMSEYSSTLCRHLYLFPGHPPTGSGPPSLQVKPCTSEFYRTHHHLAYRLQSRPRGLALVLSNVHFNGEKDLEFRSGGDVDHSSLVTLFKLLDYDVHVLRDQTAQEMYEKLQRFAQLSTHQNTDSCVVALLSHGIEGGIYGVDGQLLQLQEVFQLFDNANCPNLQNKPKMFFIQACRGDETDRGVDLRD,44,48,,,,,,,,,,,,,,94,,34,,,
"T7AC-6H-cpCasp2_sar_E105V, E172V (protein) MLEDPERNKERKEAELQAQTAEQHHHHHHGKEHMASPGCEQSAAGKEKILKMRLPTRSDMICGYACLKGTAAMRNTKRGSWYIEALTQVFSERARDMHVADMLVKVNALIKDREGYAPGTEFHRCKVMSEYSSTLCRHLYLFPGHPPTGSGPPSLQVKPCTSEFYRTHHHLAYRLQSRPRGLALVLSNVHFNGVKDLEFRSGGDVDHSSLVTLFKLLDYDVHVLRDQTAQEMYEKLQRFAQLSTHQNTDSCVVALLSHGIEGGIYGVDGQLLQLQEVFQLFDNANCPNLQNKPKMFFIQACRGDETDRGVDLRD",52,31,,,,,,,,,,,,,,120,,69,,,
"wt caspase-2 (human, produced in E. coli with poly-his-tag) (protein) GPVCLQVKPCTPEFYQTHFQLAYRLQSRPRGLALVLSNVHFTGEKELEFRSGGDVDHSTLVTLFKLLGYDVHVLCDQTAQEMQEKLQNFAQLPAHRVTDSCIVALLSHGVEGAIYGVDGKLLQLQEVFQLFDNANCPSLQNKPKMFFIQACRGDETDRGVDQQDGKNHAGSPGCEESDAGKEKLPKMRLPTRSDMICGYACLKGTAAMRNTKRGSWYIEALAQVFSERACDMHVADMLVKVNALIKDREGYAPGTEFHRCKEMSEYCSTLCRHLYLFPGHPPTHHHHHH",79,97,,,,,,,,,,,,,,110,,86,,,
"Caspase-2 (human), recombinant, active, Enzo Life Sciences (protein) GPVCLQVKPCTPEFYQTHFQLAYRLQSRPRGLALVLSNVHFTGEKELEFRSGGDVDHSTLVTLFKLLGYDVHVLCDQTAQEMQEKLQNFAQLPAHRVTDSCIVALLSHGVEGAIYGVDGKLLQLQEVFQLFDNANCPSLQNKPKMFFIQACRGDETDRGVDQQDGKNHAGSPGCEESDAGKEKLPKMRLPTRSDMICGYACLKGTAAMRNTKRGSWYIEALAQVFSERACDMHVADMLVKVNALIKDREGYAPGTEFHRCKEMSEYCSTLCRHLYLFPGHPPT",,,,,,,,,,,,,,,,,,,,,cleavage of DEVD-E2 compared with VDVAD-E2 (DEVD-E2): cleaved DEVD-E2 only 44 times slower than VDVAD-E2
6H_cpCasp2_S9_E105V (protein) MHHHHHHGKNHAGSPGCEESAAGKEKLPKMRLPTRSDMICGYACLKGTAAMRNTKRGSWYIEALAQVFSERACDMHVADMLVKVNALIKDREGYAPGTEFHRCKVMSEYCSTLCRHLYLFPGHPPTGSGPVCLQVKPCTPEFYQTHFQLAYRLQSRPRGLALVLSNVHFTGEKELEFRSGGDVDHSTLVTLFKLLGYDVHVLCDQTAQEMQEKLQNFAQLPAHRVTDSCIVALLSHGVEGAIYGVDGKLLQLQEVFQLFDNANCPSLQNKPKMFFIQACRGDETDRGVDQQD,77,57,100,51,300,200,48,,160,70,97,340,150,110,830,130,180,81,250,200,
cp caspase-2 (6H_cpCasp2D) (protein) MHHHHHHGKNHAGSPGCEESAAGKEKLPKMRLPTRSDMICGYACLKGTAAMRNTKRGSWYIEALAQVFSERACDMHVADMLVKVNALIKDREGYAPGTEFHRCKEMSEYCSTLCRHLYLFPGHPPTGSGPVCLQVKPCTPEFYQTHFQLAYRLQSRPRGLALVLSNVHFTGEKELEFRSGGDVDHSTLVTLFKLLGYDVHVLCDQTAQEMQEKLQNFAQLPAHRVTDSCIVALLSHGVEGAIYGVDGKLLQLQEVFQLFDNANCPSLQNKPKMFFIQACRGDETDRGVDQQD,60,110,78,46,290,160,58,639,120,71,120,340,75,89,380,120,170,64,300,200,KM (Abz-VDVADCA-Dap (Dnp)): 38 µM; cleavage of DEVD-E2 compared with VDVAD-E2 (DEVD-E2): processed 140 times slower than VDVAD-E2
6H_cpCasp2_G171D (protein) MHHHHHHGKNHAGSPGCEESAAGKEKLPKMRLPTRSDMICGYACLKGTAAMRNTKRGSWYIEALAQVFSERACDMHVADMLVKVNALIKDREGYAPGTEFHRCKEMSEYCSTLCRHLYLFPGHPPTGSGPVCLQVKPCTPEFYQTHFQLAYRLQSRPRGLALVLSNVHFTDEKELEFRSGGDVDHSTLVTLFKLLGYDVHVLCDQTAQEMQEKLQNFAQLPAHRVTDSCIVALLSHGVEGAIYGVDGKLLQLQEVFQLFDNANCPSLQNKPKMFFIQACRGDETDRGVDQQD,86,75,110,56,300,150,65,,170,78,94,350,140,120,610,160,210,96,390,220,
